Assay results reported in patent US20150203577A1 (Chugai, published 2015).
Numbering of substitutions follows the chain as printed.

T1: mouse FcγRIII extracellular domain, C-terminally His-tagged (mouse, UniProt P08508 31-215)
T1 construct: the whole entry is named; also called mFcγRIII; mFcgRIII
T1 chain: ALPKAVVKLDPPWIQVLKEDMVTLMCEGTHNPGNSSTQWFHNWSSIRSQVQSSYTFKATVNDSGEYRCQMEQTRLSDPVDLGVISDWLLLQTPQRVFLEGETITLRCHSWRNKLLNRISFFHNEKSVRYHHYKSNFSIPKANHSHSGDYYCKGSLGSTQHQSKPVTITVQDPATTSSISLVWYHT

T2: mouse FcγRII extracellular domain, C-terminally His-tagged (mouse, UniProt P08101 30-210)
T2 construct: the whole entry is named; also called mFcγRII; mFcgRII
T2 sequence: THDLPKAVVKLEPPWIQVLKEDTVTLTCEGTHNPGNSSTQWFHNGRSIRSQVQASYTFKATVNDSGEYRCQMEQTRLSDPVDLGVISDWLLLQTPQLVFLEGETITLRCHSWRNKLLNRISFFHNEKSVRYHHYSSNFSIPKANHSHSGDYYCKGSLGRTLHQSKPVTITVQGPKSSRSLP

B1: H237-MB440/MRAL-k0 (antibody, mouse IgG1, kappa)
heavy: QVQLQESGPGLVKPSETLSLTCAVSGHSISHDHAWSWVRQPPGEGLEWIGFISYSGITNYNPSLQGRVTISRDNSKNTLYLQMNSLRAEDTAVYYCARSLARTTAMDYWGEGTLVTVSSAKTTPPSVYPLAPGSAAQTNSMVTLGCLVKGYFPEPVTVTWNSGSLSSGVHTFPAVLQSDLYTLSSSVTVPSSTWPSETVTCNVAHPASSTKVDKKIVPRDCGCKPCICETYEVEDVFIFPPKPKDVLTITLTPKVTCVVVDISKDDLEVQFSWFVDDVEVHTAQTQPREEQFNSTFRSVSELPIMHQDWLNGKEFKCRVNSAAFPAPIEKTISKTKGRPKAPQVYTIPPPKEQMAKDKVSLTCMITDFFPEDITVEWQWNGQPAENYKNTQPIMDTDGSYFVYSKLNVQKSNWEAGNTFTCSVLHEGLHNHHTEKSLSHSPGK
light: not shown
notes: copies: 2 + 2
B2: H237-MB452/MRAL-k0 (antibody, mouse IgG1, kappa)
heavy: B1 heavy with L267P, A326Q
light: not shown
notes: copies: 2 + 2
B3: H237-MB455/MRAL-k0 (antibody)
heavy: B1 heavy with L267P, P327Y
light: not shown
notes: copies: 2 + 2
B4: H237-MB460/MRAL-k0 (antibody, mouse IgG1, kappa)
heavy: B1 heavy with L267P, T331Y
light: not shown
notes: copies: 2 + 2
B5: H237-MB445/MRAL-k0 (antibody, mouse IgG1, kappa)
heavy: B1 heavy with L267P, F292T
light: not shown
notes: copies: 2 + 2
B6: H237-MB457/MRAL-k0 (antibody, mouse IgG1, kappa)
heavy: B1 heavy with L267P, E329Y
light: not shown
notes: copies: 2 + 2
B7: H237-MB456/MRAL-k0 (antibody, mouse IgG1, kappa)
heavy: B1 heavy with L267P, E329N
light: not shown
notes: copies: 2 + 2
B8: H237-MB441/MRAL-k0 (antibody, mouse IgG1, kappa)
heavy: B1 heavy with L267P, A326K
light: not shown
notes: copies: 2 + 2
B9: H237-MB450/MRAL-k0 (antibody, mouse IgG1, kappa)
heavy: B1 heavy with L267P, N320M
light: not shown
notes: copies: 2 + 2
B10: H237-MB458/MRAL-k0 (antibody, mouse IgG1, kappa)
heavy: B1 heavy with L267P, E329V
light: not shown
notes: copies: 2 + 2
B11: H237-MB444/MRAL-k0 (antibody, mouse IgG1, kappa)
heavy: B1 heavy with L267P, F292N
light: not shown
notes: copies: 2 + 2
B12: H237-MB459/MRAL-k0 (antibody, mouse IgG1, kappa)
heavy: B1 heavy with L267P, T331N
light: not shown
notes: copies: 2 + 2
B13: H237-MB454/MRAL-k0 (antibody, mouse IgG1, kappa)
heavy: B1 heavy with L267P, P327F
light: not shown
notes: copies: 2 + 2
B14: H237-MB447/MRAL-k0 (antibody, mouse IgG1, kappa)
heavy: B1 heavy with L267P, S294M
light: not shown
notes: copies: 2 + 2
B15: H237-MB453/MRAL-k0 (antibody, mouse IgG1, kappa)
heavy: B1 heavy with L267P, P327D
light: not shown
notes: copies: 2 + 2
B16: H237-MB442/MRAL-k0 (antibody, mouse IgG1, kappa)
heavy: B1 heavy with L267P, K330R
light: not shown
notes: copies: 2 + 2
B17: H237-MB449/MRAL-k0 (antibody, mouse IgG1, kappa)
heavy: B1 heavy with L267P, N320L
light: not shown
notes: copies: 2 + 2
B18: H237-MB443/MRAL-k0 (antibody, mouse IgG1, kappa)
heavy: B1 heavy with L267P, F292E
light: not shown
notes: copies: 2 + 2
B19: H237-MB446/MRAL-k0 (antibody, mouse IgG1, kappa)
heavy: B1 heavy with L267P, S294L
light: not shown
notes: copies: 2 + 2
B20: H237-MB448/MRAL-k0 (antibody, mouse IgG1, kappa)
heavy: B1 heavy with L267P, N320D
light: not shown
notes: copies: 2 + 2
B21: H237-MB451/MRAL-k0 (antibody, mouse IgG1, kappa)
heavy: B1 heavy with L267P, A326G
light: not shown
notes: copies: 2 + 2

Target: T1, mouse FcγRIII extracellular domain, …
Test: SPR Biacore T200, KD ratio
Source text: (§1) The antibody H chain variable region used was the variable region H237 (SEQ ID NO: 1) of the H chain VH3-IgG1 of the anti-IL-6 receptor antibody Fv4-IgG1 described in WO2009/125825. The antibody L chain commonly used was the L chain MRAL-k0 (SEQ ID NO: 2) of the anti-IL-6 receptor antibody tocilizumab. […] The resulting variant groups were designated as MB397 variants and MB390 variants, respectively. These variants were expressed and purified by the method of Reference Example 1 and evaluated for their binding to mFcγRII and mFcγRIII by the method of Reference Example 2 using Biacore T200.
(§2) Each altered antibody was analyzed for its interaction with each Fcγ receptor prepared above using Biacore T100 (GE Healthcare Japan Corp.), Biacore T200 (GE Healthcare Japan Corp.), Biacore A100, or Biacore 4000. The running buffer used was HBS-EP+ (GE Healthcare Japan Corp.). The assay temperature was set to 25° C. The sensor chips used were chips prepared by immobilizing Protein L (ACTIGEN or BioVision) onto Series S Sensor Chip CM5 (GE Healthcare Japan Corp.) or Series S Sensor Chip CM4 (GE Healthcare Japan Corp.) by the amine coupling method.
(§3) In order to calculate the KD value of each altered antibody for FcγR, kinetic analysis was conducted according to the following method: first, the antibody of interest was captured onto any of these chips and allowed to interact with mFcγR diluted with a running buffer. For the obtained sensorgram, the assay results were globally fit into the 1:1 Langmuir binding model using Biacore Evaluation Software to calculate an association rate constant ka (L/mol/s) and a dissociation rate constant kd (1/s). From these values, the dissociation constant KD (mol/L) was calculated.

| Binder | relative mFcγRIII-binding activity (MB397 = 1) [fold] | relative mFcγRIII-binding activity (mIgG1 = 1) [fold] |
| --- | --- | --- |
| B1 | 0.36 | 6.9 |
| B2 | 0.23 | 4.4 |
| B3 | 1.38 | 26.6 |
| B4 | 1.1 | 21.2 |
| B5 | 0.68 | 13.2 |
| B6 | 0.7 | 13.6 |
| B7 | 0.23 | 4.5 |
| B8 | 0.21 | 4.1 |
| B9 | 1.18 | 22.7 |
| B10 | 0.81 | 15.7 |
| B11 | 0.67 | 12.9 |
| B12 | 1.06 | 20.5 |
| B13 | 1.04 | 20 |
| B14 | 1.63 | 31.4 |
| B15 | 0.49 | 9.5 |
| B16 | 1.39 | 26.9 |
| B17 | 0.56 | 10.7 |
| B18 | 0.79 | 15.3 |
| B19 | 3.3 | 63.7 |
| B20 | 1.3 | 25.1 |
| B21 | 0.5 | 9.7 |

Target: T2, mouse FcγRII extracellular domain, …
Test: SPR Biacore T200, KD ratio
Source text: as §1, §2, §3

| Binder | relative mFcγRII-binding activity (MB397 = 1) [fold] | relative mFcγRII-binding activity (mIgG1 = 1) [fold] |
| --- | --- | --- |
| B1 | 0.22 | 120 |
| B2 | 0.08 | 46.9 |
| B3 | 0.6 | 332 |
| B4 | 0.6 | 332 |
| B5 | 0.4 | 220 |
| B6 | 0.36 | 202 |
| B7 | 0.12 | 67.9 |
| B8 | 0.07 | 39.7 |
| B9 | 0.68 | 377 |
| B10 | 0.46 | 253 |
| B11 | 0.42 | 231 |
| B12 | 0.51 | 285 |
| B13 | 0.53 | 295 |
| B14 | 1.1 | 608 |
| B15 | 0.21 | 118 |
| B16 | 1.6 | 884 |
| B17 | 0.28 | 154 |
| B18 | 0.44 | 243 |
| B19 | 2.45 | 1360 |
| B20 | 0.95 | 525 |
| B21 | 0.11 | 60.1 |
